The values below are quoted from earlier work in paper PMC3208733.

Several values for one entry are separate records, joined by “and”; a condition that tells them apart may be missing. Equal entries are not always repeated.

This series addresses scaffolding protein (Salmonella phage P22) (UniProt P26748).

For the substance “scaffolding protein (from UniProt P26748)”, the Kd is 78 µM and 170 µM.
